# PMC6372160, “Biophysical and structural characterization of a zinc-responsive repressor of the MarR superfamily” (PLoS ONE, 2019)
# How the values were obtained:
# [1] = target: the molecule itself; assay: SEC; gel filtration at the end of purification, 20 mM Tris-HCl (pH 7.0), 200 mM NaCl, 100 uM ZnSO4; data not shown
# [2] = target: the molecule itself; assay: SEC-MALS; 50 ul of fully purified protein at approximately 1-4 mg/ml on a KW-803 column (Shodex), 0.5 ml/min, supplemented with 1 uM ZnSO4 (untreated protein)
protein,measurement,setting,value
"ZitR protein of Lactococcus lactis subspecies cremoris strain MG1363, untagged recombinant (S2A, A4R, D8E) form (natural protein, UniProt A2RNS2 1-145, looked up, A minor tetrameric form was also seen at the end of the purification; also called ZitRMG; holo-ZitRMG) MALRNQIEQFLGAIMQFAENKHEILLGECESNVKLTSTQEHILMILAAEVSTNARIAEQLKISPAAVTKALKKLQEQELIKSSRATNDERVVLWSLTEKAIPVAKEHAAHHEKTLSTYQELGDKFTDEEQKVISQFLSVLTEEFR",stoichiometry N,[1],4
same,stoichiometry N,[2],2
